Experiment: label from the status in PepcDB records
For “MFALIILISAIIFGIISYFTGKHAKEVSAVLSGILLLEIIAYSIMRFSSYSGGFISRYSVVISSSLGLSFSIAVSGLTDALLILSAVVILIAVLITDRNYGSAFFGLEMTVLAGLIGLLISRDFLFFYIFWEVVLIPVYFMIGRYGIGNKNSISLKFFVYTHIGSVFILLSIFTLYSQSYVYLASPTFEIGPLMSILPKLSLFYKGFVIFGFLFGFLVKMPSFPIHSWLPDSYYSAPYPGSVILAGAISMMGGYGLFGIMIESYKALDVYVLYLLIALGIISLIYFALTAMFQRNIKKMMAFASASAMGFVTISFAASILETSGIDYSVRALEAAGGMFQIVAHGLIMSLVFSALYYISRNTKTDSVYGLGGIYREAPKLASLTLVGLLASLGLPGFAGFIGEFSIVVGVFQTVSWYIFLIIFGMIITASYHIWTAQRSLYGPYNENLGFIRDINSGEFMILIFLVLVIFVLGIYPNLIFANLVNYTNTSLSISVEPALRTNVVAFLEAHVFEVMQ”, the protein production was “failed”.
With “MFANWLLVSVSIGYIGLLFLIAHLGGKYRNKLEAKQQTIIYALSLGVYCTSWGFLGTTAQAANHSFTFLSVYLAPIVLFVFAWPFIQRIIKTSLKLKITSIADLLSARFGKSQTLAIIITLVALIGTMPYIALQLKAIVNSYQILQETQDLPIWQIGLVVSIILAVFTIIFGIRTIDITERHPGVMIAIAFESLVKLIAFLLVGLFVSFIIYDSPMDIWELSKDQFDIEKQFEFSNLFALFGMLIIVMSAFLCLPRQFQVMFVEIKDKKTSGMARWVLPVYLLIFGFFAAVLGLAGNLNYGSSLAADAYVLFLPALDGQVWLSLFAFLGAVSAASSMVIVSTIALSTMLSNEIVFPVMFNFSRQKQQDFNHFQLQLLFIRKTLVLLVIFLSYGLLLVSPPDALSSLGEVAFGAIAQIGPALFVAFYWRRATLAGVLAGIICGFTIWTVFNLIPQLGIYAHPLENTDLPKTTVITLIGLLINVIALWLVSLGTRQSIREQMQSEFFYTDRKKIKWSLPSQPKVDIVELELLVARFIGEEKATKCFEKFHSMNQTKDNKKFNEAILFHAENTLARVLGSASAKLVTSLAISSRGMAFDQVAKLVEDNSTQQLEFSRTVLQSAIENVSEGISVIDSELKLVAWNKQYLDIFSYPEAFIYIGCPISQLIHFNLSQQGYFAKDIDLRVKKRIQYIMEGSRHNTEYKLKNGKNIRIEGSPIPGGGFVMIFSDITQYRQTEEVLKEENTDLESRVQFRTAELEQANKELALANHELIQAQTKAEQAHVKKSQYLKACSHDLLQPLSAARLFSSAISLSPRVSNEEREQIKKIDNSLEIANSLLLDLNEIARIESGNITPTIEPIEIKELFTMLANEFNALTDEYHVEFHCKMSKTYVASDITLLARIVQNFLSNAFRYAHRCDKKNQSKVLLGCRRQGNEISIQVFDNGPGIPIDKQQQVFDQFTQLNNSNVMGPKGLGLGLNIAQSLANILEHKIDLKSKPGHGCLFSVNAPMTLAPAAKEQTLPPASMSLHGVGVLCIDNEPAILDGMSKLLSAWQCQVFTAVDAQQARELYAKHEDEIDILLVDYQLDGCQDDNTIMATDMLISERNDSSCSIDPVNGIGLIKQLRAMSPYALPAILITATTGENLMALTKQHNIGYLRKIIRPLALRALMSSLLTEELAKNYSQNNT” the protein production was “failed”.
In the case of “MFAVPYHQHLWRIKLALIAQNHLQLIIEVGIILYAAMVFILNLAPMSLSMVLFICIVLGIGFNIIFGLDVVALFMSFGQSEFTHPFGPIALLVTVSSLAALAIMEESGVDVRGLRGFVYLLMAGITLFGGLMHRSFLLLWLLGLFMGLFIISKSMRQRSLITVKRVAGFALIAVAGFGGLELISRVLGMTVLSPLLRIERLETFSLPSMKLVIKNTTLLGHNPMSSYWGELSSGFADGYISLPLQLILFFGLPFPVFYGILVNKKDVIDYMVPGVFGWAYDFGYITMFFLLIWCVGIIIMGLRMLSIYRERRENGSRSYLGREVLLTGALAAFMSQAIIGLFVINRTINGTALLTFIFLSSLIFANSVGLKE”, the protein production is reported as “failed”.
For “MFDFSIVTNWIHEMLLSVMPEGWAIFIECIAVGVCIVALYAILAIVLIYMERKVCGFFQCRLGPNRVGKWGSIQVICDVLKMLTKEIFTPKDADRFLYNLAPFMVIIASFLTFACIPFNKGAEILNFNVGVFFLLAASSIGVVGILLAGWGSNNKFSLIGAMRSGAQIISYELSVGMSIMTMVVLMGTMQFSEIVEGQADGWFIFKGHIPAVIAFIIYLIAGNAECNRGPFDLPEAESELTAGYHTEYSGMHFGFFYLAEYLNLFIVASVAATIFLGGWMPLHIIGLDGFNAVMDYIPGFIWFFAKAFFVVFLLMWIKWTFPRLRIDQILNLEWKYLVPISMVNLLLMACCVAFGFHF”, the protein production was “failed”.
With “MFDKIHYYYFNANYEKCLNLSEQFLKESPKFALEFATLSSYKLSLFQKALYYAQELFSLNPTSFNGLMLAKSYIENLRLDEALNLLQTLLTRKDDLEDELKLELAFIYKLSNKLEESEQIFKELLSKDMYNLNLWKNYAEIYFKHDFTKALNAHEHLCHFMQDLIDKLQKGIIAEQTNLNLVKLEDRLHSKTKENLTISKIEDFLTHQILPQKAYLLFKLFRISDSLELFQSLQEANQHHAQFWQNYAKVLEFNSNYQEAYHAYKKCLSLDSHATYQFDLAYLLMRMGVDDNFEEGKKYYESRLFYAHNETFSTYHYNESLKAFNKFGVDAFKNKEVLVFCEQGFGDTIMYARCLEKLCKIASKVLFAPQSAMYEMFKNQIKFLNQNDDIFKNVKVLKNLPTNFDYAIPICSLPFFIDIKLDEILRLKTPILPQKKPHNQRKKLGIFYATPNAENSDLLRNVKFEFLFDVLKDLDYEIISFQMQLKEELPKVIEDRSKLIKNWNDTLNYLYDIDCMLSIDSAIAHLSLAMDIPTIVLLHPRFDWRWGKFENPKSYFWPKAKCFIIKEQEETKRNLQKLIKDILN” the protein production was “failed”.
With “MFDTKIAVILRDDLAVWQKLNVTAFLMSGIVAQTGEIIGEPYRDGAGNVYNPLSIQPIVVMATDQEALRKIHQRSLERDITTSLYIEEMFATGHDAANRQVFSHFSPDTAKVVGMALRADRKIVDKITKGAKLHA” the protein production was “not failed”.
With “MFEENEKEQLLYYERNKESEKCQKVWESIICKGLGYSKEEIRRDVERSRREKERLLSILYGSVFTGPKYLLYSKKWRGKTLNEIINEDREKNLNKNNFKNMDLDSTYFCELSFGYMDTAEENDDKNKKEITKQMEKKNDKVPNIRKGGNTNNSQNKRKTYHGEKNANTTNKDLDEFYSKLNYLEKRSYKNRYRNDNNNKKNNNNNNNNNNSNSNNNYYYYYSNGRSSYTNELSNEKNKYNEENSDEGNVIKYKYLPTGVFYSRVSKSFIANWIDDKTKKQVKIPYKISEYGIEKCMILAILSRNLRLSNLSNVLKYYDELTDSQKEQMLHAIRTTQKSEKLFEDIINRNGNKKNENNIINNYSNIHNDTSINNNNNNNNNNNNNIGNTIGTQHKNKNKQNANDQKNIPMKKKLIEKKKVKQSYVNEEKLPTGVYFYQGSYVANWWETNQKKQFKVPFKISEYGIARAKNLAIISRLIRSSSIPDINLILTQMENDHNLSDMDYTAISELAYKYIENMAKKE” the protein production was “failed”.
With “MFEFILQLSLGILAVSTFLYVLRVIKGPSIPDRVVALDAIGINLIGITALVSILLNTTAYLEVILLIGILAFIGTVAFSKFLEKGEIIENDRSR” the protein production was “failed”.
For “MFEGQPKGLYALALANTGERFGYYTMLAIFTLFLQAKFGYTAAETSTIFGCFLAAVYFIPFFGGILADKFGYGKMVTMGIVVMFIGYALLAIPTSDNSGKIMMFGALALIACGTGLFKGNLQVMVGNLYDAPEYSSKRDTAFSIFYMAINIGAMYAPTAATKVTNYMLGKAGLSYVPQIPSLAHQYLDGTITPANQATLESLQAAQNFTGDIATFCTTYIDKLSEAYNYGFGVACVSLIISMLIYVAFRSTFKHADYNSKQAKPANVVEEKLTPEQTKQRIVALLLVFAVVIFFWMAFHQNGLTLTFFARDYTAQEVTGLDRLGFNIVNLTFLLIVIYGLFSLFQGKTGKSKTIAGVVVMVALLCLGWSYTSMDPTINILPQIFQQFNPFFVIALTPVSLAVFGYLARKGKEPSAPRKIGIGMMIAVCGFLIMAIGSIGLPTPDALAASGIEKDALVSPNWLISTYLVLTFAELFLSPMGISFVSKVAPPKYKGMMMGGWFAATAIGNYLVAIIGYLWGGMQLWMVWSVLIVCCLLAALFIFSIMKKLEKVA”, the protein production was “failed”.
For “MFFLRTTKRMESYSQNSNKLDFQHEARILNSIWLITALGLVATAGLAWGAKYLEITATKYDSPQMYVAIGLLLLSMYGLSKDINKINTAIAGVIYLFLISLVAIVVASLAPVSAIIVVFSTAGSMFLISMLAGLLFKFDPGSHRFIIMMTLTGLALVIIVNATLMSERPIWVISCLMIVLWSGIISHGRNKLLELTGKSHSEELWSSVRCAFIGALTLYYYFIGFFGILAAIAITLVWQRHTRFFH”, the protein production was “failed”.
